In the Human Domainome abundance scans (Beltran et al. 2025):
± gives the uncertainty stated by the source.

B1: Transcriptional regulator ERG, residues 117 to 197; numbered along this chain, P11308 (parent)
chain: NMTTNERRVIVPADPTLWSTDHVRQWLEWAVKEYGLPDVNILLFQNIDGKELCKMTKDDFQRLTPSYNADILLSHLHYLRE
B2: Ras GTPase-activating protein 1, residues 281 to 341; numbered along this chain, P20936 (parent)
chain: RRRVRAILPYTKVPDTDEISFLKGDMFIVHNELEDGWMWVTNLRTDEQGLIVEDLVEEVGR

Variants of: B1
Assay: abundance fitness (aPCA) (normalised: wild type 0, dead -1); higher = more abundant; growth selection in yeast, the domain comes from the species named
Conditions: Homo sapiens
Variant C53Q has an abundance fitness of -0.269 ± 0.082.
With K50T the abundance fitness was 0.014 ± 0.048.
With R62G the abundance fitness was -0.06 ± 0.054.
For M55K, the abundance fitness was -0.315 ± 0.097.
For Q25H, the abundance fitness was -0.046 ± 0.074.
With I41D the abundance fitness was -0.157 ± 0.072.
Variant V31R has an abundance fitness of -0.054 ± 0.038.

Variants of: B2
Assay: as above
Conditions: Homo sapiens
N42P gave an abundance fitness of -0.874 ± 0.091.
In the case of P9W, the abundance fitness is reported as -0.805 ± 0.095.
Work on A6E yielded an abundance fitness of -0.819 ± 0.054.
D46A gave an abundance fitness of 0.05 ± 0.027.
With R2H the abundance fitness was -0.183 ± 0.038.
In the case of T16D, the abundance fitness is reported as -1.01 ± 0.068.
V29H showed an abundance fitness of -0.881 ± 0.062.
Variant L55S has an abundance fitness of -0.018 ± 0.026.
With I28G the abundance fitness was -0.604 ± 0.022.
With V52C the abundance fitness was 0.024 ± 0.027.
K12Y gave an abundance fitness of -0.824 ± 0.044.
For E34T, the abundance fitness was -0.106 ± 0.041.
Work on R44Q yielded an abundance fitness of -0.314 ± 0.12.
Variant D35N has an abundance fitness of -0.025 ± 0.03.
Q48S gave an abundance fitness of -0.022 ± 0.025.
R3I gave an abundance fitness of -0.073 ± 0.031.
With P9V the abundance fitness was -0.855 ± 0.054.
In the case of R5K, the abundance fitness is reported as 0.052 ± 0.062.
A6V gave an abundance fitness of -0.899 ± 0.028.
Variant V59F has an abundance fitness of -0.106 ± 0.025.
In the case of D46W, the abundance fitness is reported as 0.029 ± 0.053.
N42H showed an abundance fitness of -0.381 ± 0.033.
Work on K23W yielded an abundance fitness of -0.482 ± 0.037.
Variant M26Q has an abundance fitness of -0.056 ± 0.062.
In the case of L33N, the abundance fitness is reported as -0.158 ± 0.03.
Work on E18R yielded an abundance fitness of -0.353 ± 0.034.
With S20M the abundance fitness was -1.09 ± 0.2.
With F21Y the abundance fitness was -0.091 ± 0.021.
In the case of F27W, the abundance fitness is reported as -0.957 ± 0.1.
Variant E57I has an abundance fitness of -0.223 ± 0.034.
Variant P9E has an abundance fitness of -0.103 ± 0.069.
D25P gave an abundance fitness of -0.664 ± 0.093.
Variant K23N has an abundance fitness of -0.246 ± 0.023.
For L43H, the abundance fitness was -0.612 ± 0.047.
R1Q showed an abundance fitness of -0.503 ± 0.39.
With V13C the abundance fitness was 0.015 ± 0.028.
For L8Q, the abundance fitness was -0.052 ± 0.058.
Work on F27H yielded an abundance fitness of -0.724 ± 0.05.
Variant R44H has an abundance fitness of -0.542 ± 0.039.
For V4W, the abundance fitness was -0.597 ± 0.038.
In the case of L55I, the abundance fitness is reported as -0.241 ± 0.034.
Variant R2K has an abundance fitness of 0.027 ± 0.08.
L43M showed an abundance fitness of 0.005 ± 0.057.
In the case of I51Q, the abundance fitness is reported as -1.07 ± 0.16.
In the case of V13D, the abundance fitness is reported as -0.047 ± 0.033.
Variant V40P has an abundance fitness of -0.77 ± 0.073.
In the case of T41S, the abundance fitness is reported as -0.19 ± 0.026.
R1P showed an abundance fitness of -0.283 ± 0.13.
In the case of L8K, the abundance fitness is reported as -0.129 ± 0.054.
Variant K23V has an abundance fitness of -0.13 ± 0.028.
Variant L8H has an abundance fitness of -0.037 ± 0.032.
Variant R3N has an abundance fitness of -0.126 ± 0.032.
In the case of P14Y, the abundance fitness is reported as -0.295 ± 0.033.
D46E gave an abundance fitness of 0.066 ± 0.056.
E47V gave an abundance fitness of -0.375 ± 0.027.
With L22V the abundance fitness was -0.038 ± 0.035.
With E53A the abundance fitness was -0.027 ± 0.032.
In the case of V56S, the abundance fitness is reported as -0.73 ± 0.036.
Q48R showed an abundance fitness of -0.051 ± 0.03.
Variant T11V has an abundance fitness of 0.017 ± 0.029.
Variant L22C has an abundance fitness of -0.124 ± 0.031.
For D15F, the abundance fitness was -0.241 ± 0.027.
In the case of I28P, the abundance fitness is reported as -0.85 ± 0.04.
Q48E showed an abundance fitness of -0.06 ± 0.063.
For K23C, the abundance fitness was -0.16 ± 0.023.
Work on R3P yielded an abundance fitness of -0.51 ± 0.04.
A6I gave an abundance fitness of -0.885 ± 0.031.
For F21P, the abundance fitness was -0.939 ± 0.05.
Work on H30C yielded an abundance fitness of -0.362 ± 0.028.
D54F showed an abundance fitness of -0.262 ± 0.041.
V40D gave an abundance fitness of -0.846 ± 0.048.
Variant E18N has an abundance fitness of -0.809 ± 0.051.
With S20P the abundance fitness was -0.639 ± 0.077.
With G49P the abundance fitness was -0.846 ± 0.067.
K23S gave an abundance fitness of -0.102 ± 0.02.
H30L showed an abundance fitness of -0.085 ± 0.03.
